From patent publication CN111393529A (KANGYUAN BOCHUANG BIO TECH BEIJING CO LTD, dated 2020)

T1: OX40蛋白胞外区与小鼠IgG2a-FC的融合蛋白 (human; mouse, UniProt P43489 29-214)
T1 construct: also called 抗原OX40小鼠IgG2a Fc标签蛋白; 实施例1中的融合蛋白; not shown: Mouse IgG2a Fc, from Genbank AAH31470.1
T1 sequence: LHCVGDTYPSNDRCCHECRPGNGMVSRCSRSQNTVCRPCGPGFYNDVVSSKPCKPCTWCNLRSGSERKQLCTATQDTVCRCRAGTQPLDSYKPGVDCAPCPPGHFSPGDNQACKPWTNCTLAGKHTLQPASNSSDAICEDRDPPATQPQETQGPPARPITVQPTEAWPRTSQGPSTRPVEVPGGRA

B1: 抗体H1E6 (antibody, V domains shown)
VH: EVKLVESGAELVKPGTSVRLSCKASGYTFTSYDINWVRQRPEQGLEWIGWIFPGDGSTKYNEKFKGKATLTTDKSSSTVYMQLSRLTSEDSAVYFCARWDGYYEGDYFDNWGQGTTLTVSS
VL: DIVMTQSPSSLSASLGGKVTITCKASQDINKYIAWYQHKPGKGPRLLIHYTSTLQPGIPSRFSGSGSGRDYSFNISNLEPEDIATYYCLQYVNLYTFGGGTKLEIKR
B2: 抗体H1K1 (antibody, V domains shown)
VH: EVQLQQPGSVLVRPGTSVKLSCKASGYTFTSSWIHWARQRPGQGLEWIGDIHPNSGNTNYNEKFKGKATLTVDTSSSTAYVDLSSLTSEDSAVYYCVRSYGNYKDYYGMDYWGQGTSVTVSS
VL: DILMTQSPASLAVSLGQRATISCKASQSVDYDGDSYMNWYQQKPGQPPKLLIYAASNLESGIPARFSGSGSGTDFTLNIHPVEEEDAATYYCQQSNEDPYTFGGGTKLEIKR
B3: 抗体I3E3 (antibody, V domains shown)
VH: EVKLVESGGGLVQPGGSLRLSCATSGFTFSDFYMGWVRQPPGKRLEWIAASRNKAYDYTTAYSASVKGRFIVSRDTSQSILYLQMNALRAEDTAIYYCARDDGYYPMDYWGQGTSVTVSS
VL: DIQLTQSPASLAVSLGQRATISCRASKSVSTSGYSYMHWYQQKPGQPPKLLIYLASNLESGVPARFSGSGSGTDFTLNIHPVEEEDAATYYCQHSRELPLTFGAGTKLELKR

Target: T1, OX40蛋白胞外区与小鼠IgG2a-FC的融合蛋白
Experiment: SPR, Biacore T200, antibody captured on CM5 chip, OX40-mouse IgG2a Fc as analyte

Binder | Kd
B1 | 5.1 nM
B2 | 11 nM
B3 | 4.4 nM
